Experimental data reported in paper PMC4077741, “Miz-1 Activates Gene Expression via a Novel Consensus DNA Binding Motif”.

What was measured:
[1] = target: Cux1 (UniProt P39880); experiment: EMSA; conditions: EMSA: ZBA (10 mM Tris pH 7.5, 90 mM KCl, 1 mM MgCl2, 90 uM ZnCl2, 5 mM DTT) with 100 ng/ul poly(dI-dC), 15 min, room temperature, 5% acrylamide gel in 0.5X …
[2] = target: T1, MBP-Miz-1-ZF (Homo sapiens) (UniProt Q13105); experiment: competition; conditions: EMSA: ZBA (10 mM Tris pH 7.5, 90 mM KCl, 1 mM MgCl2, 90 uM ZnCl2, 5 mM DTT) with 100 ng/ul poly(dI-dC), 15 min, room temperature, 5% acrylamide gel in 0.5X …
T1 sequence (Q13105 269-793, looked up): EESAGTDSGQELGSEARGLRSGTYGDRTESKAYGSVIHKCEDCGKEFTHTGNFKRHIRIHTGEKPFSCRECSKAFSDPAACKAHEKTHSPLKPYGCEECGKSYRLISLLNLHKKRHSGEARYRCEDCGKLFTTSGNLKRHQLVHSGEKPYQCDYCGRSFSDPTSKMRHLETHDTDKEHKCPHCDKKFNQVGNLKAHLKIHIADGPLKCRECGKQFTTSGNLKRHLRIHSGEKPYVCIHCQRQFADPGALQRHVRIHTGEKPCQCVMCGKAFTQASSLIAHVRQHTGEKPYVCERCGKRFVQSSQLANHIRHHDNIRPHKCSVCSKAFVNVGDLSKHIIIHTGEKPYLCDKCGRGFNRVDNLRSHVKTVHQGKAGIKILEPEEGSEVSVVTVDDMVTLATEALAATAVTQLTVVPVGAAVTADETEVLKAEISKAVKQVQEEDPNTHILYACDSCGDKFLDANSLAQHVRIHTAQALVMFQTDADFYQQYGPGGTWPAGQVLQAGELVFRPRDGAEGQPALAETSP

[3] = target: T2, MBP-Miz-1-FL (Homo sapiens, UniProt Q13105 1-803); experiment: competition; 200-fold unlabeled P1 vs labeled P2; EMSA: ZBA (10 mM Tris pH 7.5, 90 mM KCl, 1 mM MgCl2, 90 uM ZnCl2, 5 mM DTT) with 100 ng/ul poly(dI-dC), 15 min, room temperature; 5% acrylamide gel in 0.5X Tris-borate at 4 C; conditions: protein: recombinant; tags: N-terminal MBP; label: 5' IRDye 700 (labeled version); blunt
T2 sequence: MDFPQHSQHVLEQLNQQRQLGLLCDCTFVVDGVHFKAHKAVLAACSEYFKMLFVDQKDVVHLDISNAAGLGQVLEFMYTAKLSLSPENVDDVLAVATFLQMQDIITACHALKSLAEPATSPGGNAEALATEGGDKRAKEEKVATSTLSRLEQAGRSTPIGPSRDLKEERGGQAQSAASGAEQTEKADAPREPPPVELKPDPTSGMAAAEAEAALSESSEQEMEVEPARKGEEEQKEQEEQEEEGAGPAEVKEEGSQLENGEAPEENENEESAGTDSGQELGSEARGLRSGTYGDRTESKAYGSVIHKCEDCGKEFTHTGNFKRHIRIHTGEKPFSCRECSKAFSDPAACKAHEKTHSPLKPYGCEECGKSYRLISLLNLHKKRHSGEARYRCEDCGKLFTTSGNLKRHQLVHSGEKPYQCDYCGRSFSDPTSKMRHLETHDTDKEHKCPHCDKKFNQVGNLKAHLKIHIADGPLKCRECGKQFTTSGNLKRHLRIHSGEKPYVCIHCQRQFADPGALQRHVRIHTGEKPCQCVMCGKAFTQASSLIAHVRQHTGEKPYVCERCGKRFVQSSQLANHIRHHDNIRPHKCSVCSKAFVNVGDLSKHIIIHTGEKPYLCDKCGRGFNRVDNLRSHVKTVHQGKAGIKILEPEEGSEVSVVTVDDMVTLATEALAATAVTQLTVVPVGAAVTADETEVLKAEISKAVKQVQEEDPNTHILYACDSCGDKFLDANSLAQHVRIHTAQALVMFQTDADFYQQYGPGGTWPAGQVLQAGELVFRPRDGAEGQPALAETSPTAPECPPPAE

[4] = target: T3, Miz-1 (Figure 7 preparation) (UniProt Q13105 1-803); experiment: EMSA; EMSA: ZBA (10 mM Tris pH 7.5, 90 mM KCl, 1 mM MgCl2, 90 uM ZnCl2, 5 mM DTT) with 100 ng/ul poly(dI-dC), 15 min, room temperature; 5% acrylamide gel in 0.5X Tris-borate at 4 C; conditions: protein: ivt; label: 5' IRDye 700 (labeled version); blunt
T3 sequence: T2 sequence

[5] = target: T2, MBP-Miz-1-FL; experiment: competition; 200-fold unlabeled P1 vs labeled P1; EMSA: ZBA (10 mM Tris pH 7.5, 90 mM KCl, 1 mM MgCl2, 90 uM ZnCl2, 5 mM DTT) with 100 ng/ul poly(dI-dC), 15 min, room temperature; 5% acrylamide gel in 0.5X Tris-borate at 4 C; conditions: protein: recombinant; tags: N-terminal MBP; label: 5' IRDye 700 (labeled version); blunt
[6] = target: T2, MBP-Miz-1-FL; experiment: EMSA; EMSA: ZBA (10 mM Tris pH 7.5, 90 mM KCl, 1 mM MgCl2, 90 uM ZnCl2, 5 mM DTT) with 100 ng/ul poly(dI-dC), 15 min, room temperature; 5% acrylamide gel in 0.5X Tris-borate at 4 C; conditions: protein: recombinant; tags: N-terminal MBP; label: 5' IRDye 700; blunt
[7] = target: T3, Miz-1 (Figure 7 preparation); experiment: as above; conditions: protein: ivt; label: 5' IRDye 700; blunt
[8] = target: T4, Miz-1 untagged (Homo sapiens, UniProt Q13105 1-803); experiment: as above; conditions: protein: ivt; tags: none; label: 5' IRDye 700; blunt
T4 sequence: T2 sequence

[9] = target: T2, MBP-Miz-1-FL; experiment: competition; unlabeled P1m3 vs labeled P1 or P2; range over both proteins and probes; EMSA: ZBA (10 mM Tris pH 7.5, 90 mM KCl, 1 mM MgCl2, 90 uM ZnCl2, 5 mM DTT) with 100 ng/ul poly(dI-dC), 15 min, room temperature; 5% acrylamide gel in 0.5X Tris-borate at 4 C; conditions: protein: recombinant; tags: N-terminal MBP; blunt
[10] = target: T2, MBP-Miz-1-FL; experiment: competition; 200-fold unlabeled P2 vs labeled P2; EMSA: ZBA (10 mM Tris pH 7.5, 90 mM KCl, 1 mM MgCl2, 90 uM ZnCl2, 5 mM DTT) with 100 ng/ul poly(dI-dC), 15 min, room temperature; 5% acrylamide gel in 0.5X Tris-borate at 4 C; conditions: protein: recombinant; tags: N-terminal MBP; label: 5' IRDye 700 (labeled version); blunt
[11] = target: T2, MBP-Miz-1-FL; experiment: competition; 200-fold unlabeled P2 vs labeled P1; EMSA: ZBA (10 mM Tris pH 7.5, 90 mM KCl, 1 mM MgCl2, 90 uM ZnCl2, 5 mM DTT) with 100 ng/ul poly(dI-dC), 15 min, room temperature; 5% acrylamide gel in 0.5X Tris-borate at 4 C; conditions: protein: recombinant; tags: N-terminal MBP; label: 5' IRDye 700 (labeled version); blunt

Cux1, sequence (P39880 whole entry): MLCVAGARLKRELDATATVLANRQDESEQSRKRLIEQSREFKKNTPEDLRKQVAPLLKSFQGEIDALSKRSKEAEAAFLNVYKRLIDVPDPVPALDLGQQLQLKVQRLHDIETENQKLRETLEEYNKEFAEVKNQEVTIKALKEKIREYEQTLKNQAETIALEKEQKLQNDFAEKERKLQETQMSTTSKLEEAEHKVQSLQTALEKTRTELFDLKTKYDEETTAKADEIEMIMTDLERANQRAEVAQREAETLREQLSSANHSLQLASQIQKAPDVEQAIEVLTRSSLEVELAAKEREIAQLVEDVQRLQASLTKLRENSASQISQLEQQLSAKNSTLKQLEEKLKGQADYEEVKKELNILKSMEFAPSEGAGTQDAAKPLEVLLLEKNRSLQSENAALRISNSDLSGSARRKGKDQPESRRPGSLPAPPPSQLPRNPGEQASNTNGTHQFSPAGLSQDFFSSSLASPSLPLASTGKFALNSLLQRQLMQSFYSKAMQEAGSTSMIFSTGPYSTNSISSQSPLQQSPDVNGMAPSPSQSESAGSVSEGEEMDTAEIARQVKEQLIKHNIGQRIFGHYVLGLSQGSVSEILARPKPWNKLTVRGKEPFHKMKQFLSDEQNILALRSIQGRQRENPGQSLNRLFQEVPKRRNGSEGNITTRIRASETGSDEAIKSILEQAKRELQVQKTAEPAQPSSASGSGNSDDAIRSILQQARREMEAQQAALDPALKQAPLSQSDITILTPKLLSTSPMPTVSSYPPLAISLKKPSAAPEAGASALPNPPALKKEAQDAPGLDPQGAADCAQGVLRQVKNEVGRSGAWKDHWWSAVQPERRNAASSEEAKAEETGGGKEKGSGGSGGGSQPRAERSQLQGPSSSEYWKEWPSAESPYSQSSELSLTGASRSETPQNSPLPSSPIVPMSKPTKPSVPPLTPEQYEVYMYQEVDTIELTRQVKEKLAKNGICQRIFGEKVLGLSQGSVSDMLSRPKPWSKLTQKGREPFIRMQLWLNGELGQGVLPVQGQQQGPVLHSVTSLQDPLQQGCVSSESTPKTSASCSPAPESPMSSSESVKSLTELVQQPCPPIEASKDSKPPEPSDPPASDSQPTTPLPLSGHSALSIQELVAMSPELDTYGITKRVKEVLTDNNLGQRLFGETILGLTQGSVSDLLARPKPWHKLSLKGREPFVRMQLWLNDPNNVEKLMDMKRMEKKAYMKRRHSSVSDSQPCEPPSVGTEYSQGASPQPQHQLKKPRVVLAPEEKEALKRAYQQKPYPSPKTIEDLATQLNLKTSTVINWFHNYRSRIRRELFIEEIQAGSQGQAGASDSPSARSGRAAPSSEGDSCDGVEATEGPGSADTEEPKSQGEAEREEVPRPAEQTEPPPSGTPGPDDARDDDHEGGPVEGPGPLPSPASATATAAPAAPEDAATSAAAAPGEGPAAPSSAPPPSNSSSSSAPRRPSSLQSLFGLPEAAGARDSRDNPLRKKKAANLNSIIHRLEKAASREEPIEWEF

With “AGGGTTGGTATCGATTATCGAGTT (double strand) [P2]” the binding signal (fold bound intensity P2 over P1) [1] was 2.

For “GAATTATCGGTAATCCATCGAGGT (double strand) [P1]”, the binding signal (% reduction of bound labeled P1) ([2]; 200-fold unlabeled P1 vs labeled P1) was 87 and the binding signal ([1]; scale: bound intensity relative to P2) was 0.5.

Work on “GAATTAGGAGTAAACCATCGAGGT (double strand) [P1m1]” yielded a binding signal (% reduction of bound labeled P1) ([2]; unlabeled P1m1 vs labeled P1, competition nearly eliminated) of 7.

Work on “GAATTATCCGTAATGCATCGAGGT (double strand) [P1m2]” yielded a binding signal (% reduction of bound labeled P1) ([2]; unlabeled P1m2 vs labeled P1, competition nearly eliminated) of 24.

B1: P1 (dsDNA)
DNA 1: GAATTATCGGTAATCCATCGAGGT
DNA 2: ACCTCGATGGATTACCGATAATTC
B1 was tested, and the binding signal [3] was 4.8 fold reduction of bound labeled P2, the binding signal [4] was ~2.5 fold bound intensity P1 over P2 and the binding signal [5] was 5.3 fold reduction of bound labeled P1.

B2: CP (dsDNA)
DNA 1: CAAAAGTGCGGCTGCGTGGTGCAC
DNA 2: GTGCACCACGCAGCCGCACTTTTG
B2: no binding [6]; no binding [7]; no binding [8].

B3: P1m3 (dsDNA)
DNA 1: ACCCTTATATCGGTAATCGGTAAG
DNA 2: CTTACCGATTACCGATATAAGGGT
B3: binds [9].

B4: P2 (dsDNA)
DNA 1: AGGGTTGGTATCGATTATCGAGTT
DNA 2: AACTCGATAATCGATACCAACCCT
With B4 the binding signal [10] was 6.4 fold reduction of bound labeled P2 and the binding signal [11] was 2 fold reduction of bound labeled P1.
